Measured values from patent publication US20100015654A1 (INSTITUT DE RECHERCHES CLINIQUES DE MONTREAL I R C M, published 2010).

Experiments:
mouse CD84 = target: T1, mouse CD84 (mouse, UniProt Q18PI6 22-329); assay: co-immunoprecipitation from IL-2-activated mouse NK cells, anti-CD84 immunoblot
T1 construct: whole, on cells; Endogenous protein in NK cell lysates
T1 sequence (looked up): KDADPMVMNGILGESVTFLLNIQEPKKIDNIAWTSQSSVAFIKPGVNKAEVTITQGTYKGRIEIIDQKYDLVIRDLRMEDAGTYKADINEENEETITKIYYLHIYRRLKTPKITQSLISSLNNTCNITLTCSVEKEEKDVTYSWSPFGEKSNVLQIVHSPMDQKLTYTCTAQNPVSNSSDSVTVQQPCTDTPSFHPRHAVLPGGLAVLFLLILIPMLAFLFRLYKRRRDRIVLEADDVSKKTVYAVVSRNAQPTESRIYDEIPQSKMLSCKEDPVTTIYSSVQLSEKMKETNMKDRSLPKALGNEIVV
Source text: (§1) Association of phosphotyrosine-containing proteins with SAP-related adaptors in mouse NK cells. The indicated SAP-related adaptors were immunoprecipitated from IL-2-activated mouse NK cells, resolved in 8% gels and probed by immunoblotting with anti-phosphotyrosine (P.tyr). The anti-EAT-2 MAbs used for immunoprecipitation react with both EAT-2 and ERT. Anti-CD4 MAb GK1.5 was used as control antibody. IgH: heavy chain of IgG. Efficient immunoprecipitation of the SAP-related adaptors was verified by probing parallel immunoprecipitates with anti-EAT-2/ERT and anti-SAP (data not shown). b. Association of 2B4 with SAP-related adaptors in NK cells. Immunoprecipitates of SAP family adaptors were reprobed by immunoblotting with anti-2B4 (top panels), anti-CRACC (middle panels) and anti-CD84 (bottom panels). The migration of the various SLAM-related receptors was verified by immunoblotting of total cell lysates with the specified antibodies (lane 5).
(§2) Mouse NK cells express three SLAM-related receptors, 2B4, CRACC and CD84, that have apparent molecular masses between 60 and 70 kDa (our unpublished results). To determine if the 70 kDa-tyrosine phosphorylated protein associated with SAP family adaptors was any of these SLAM-related receptors, immunoprecipitates of SAP-related adaptors were probed by immunoblotting with antibodies against each of these SLAM family members (FIG. 5b). […]

mouse CD16 = target: T2, mouse CD16 (mouse, UniProt P08508 31-261); assay: co-immunoprecipitation from IL-2-activated mouse NK cells (data not shown)
T2 construct: whole, on cells; Endogenous protein in NK cell lysates
T2 sequence (looked up): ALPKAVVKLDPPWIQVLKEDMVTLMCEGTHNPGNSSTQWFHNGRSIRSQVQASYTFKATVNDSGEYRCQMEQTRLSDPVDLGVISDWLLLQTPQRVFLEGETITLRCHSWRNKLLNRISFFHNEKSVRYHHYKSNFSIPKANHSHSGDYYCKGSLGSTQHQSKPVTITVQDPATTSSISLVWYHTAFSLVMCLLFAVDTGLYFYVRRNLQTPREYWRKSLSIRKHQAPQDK

mouse CRACC = target: T3, mouse CRACC (mouse, UniProt Q8BHK6 23-333); assay: co-immunoprecipitation from IL-2-activated mouse NK cells, anti-CRACC immunoblot
T3 construct: whole, on cells; Endogenous protein in NK cell lysates
T3 sequence (looked up): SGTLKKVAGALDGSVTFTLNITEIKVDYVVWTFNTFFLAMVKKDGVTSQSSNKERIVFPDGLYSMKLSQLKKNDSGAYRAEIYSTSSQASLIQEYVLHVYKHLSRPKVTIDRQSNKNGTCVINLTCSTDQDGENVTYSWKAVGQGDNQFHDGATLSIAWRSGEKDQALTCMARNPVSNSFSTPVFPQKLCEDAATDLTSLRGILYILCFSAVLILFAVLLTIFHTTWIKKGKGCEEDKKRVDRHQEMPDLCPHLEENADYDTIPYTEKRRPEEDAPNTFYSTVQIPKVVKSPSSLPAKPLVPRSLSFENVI
Source text: as §1, §2

Measured: binding result

B1: mouse SAP (other, UniProt O88890 1-126, looked up)
chain: MDAVTVYHGKISRETGEKLLLATGLDGSYLLRDSESVPGVYCLCVLYQGYIYTYRVSQTETGSWSAETAPGVHKRFFRKVKNLISAFQKPDQGIVTPLQYPVEKSSGRGPQAPTGRRDSDICLNAP
notes: Intracellular adaptor made of an SH2 domain and a short tail
no binding: all assays above
